From publication PMC8304084, “A Concerted Action of UBA5 C-Terminal Unstructured Regions Is Important for Transfer of Activated UFM1 to UFC1” (International Journal of Molecular Sciences, 2021)
Read-outs that look alike come from different tables or passages of the source.

How the values were obtained:
[1] = target: Full length UFC1, residues 1–167 (UniProt Q9Y3C8); test: ITC; VP-ITC, 25 °C; UBA5 peptides (~400 µM) titrated into 20–25 µM binding partner; 25 mM HEPES pH 7.5, 100 mM NaCl; one-site model; a single profile for each interaction
[2] = target: Full length UFC1, residues 1–167 (UniProt Q9Y3C8); test: as above; remark: listed apart in the source

- Ka [1]: 30000 M⁻¹
- Kd [1]: 10 µM
- dH [1]: -4.99 kcal/mol
- stoichiometry N [1]: 0.95
- Kd [2]: > 11 µM
Binder: GAMEDSGESLEDLMAKMKNM [UBA5 C-terminal region R3, residues 388–404]
